Experimental findings from the supplement of paper PMC10567573 are described below.

± gives the standard deviation.

The series is described as follows: protein stability index of a GFP-peptide fusion (GPS, HEK-293T) (PSI 1-6); higher = more stable.
Setting [1] is: treatment: DMSO, c terminus: a fixed tail appended.
Where [2] appears, read: treatment: MLN4924 1 uM, 8 h, c terminus: a fixed tail appended.
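Further: 24-mer peptide tiles fused after GFP, lentivirally expressed, FACS-sorted into six equal bins by GFP/DsRed ratio, decoded by Illumina sequencing, PSI is the read-weighted mean bin number.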

For the sequence KASSRKPFGILSPNVLCSMSGKSP [FBXO34], the protein stability index was 2.83 ± 0.095 under setting [1] and 3 ± 0.27 under setting [2]. The matching figures for KCMRNGPNALIASLALGDLIYVVI [EDNRA]: 3.49 ± 0.4 and 2.79 ± 0.79. Taken in the same sequence, the figures for KEAKEFLVQLRNMVQQIQENSVEF [TRIM9] were 2.29 ± 0.31 and 2.41 ± 0.23. Take KECPFRVNKVCGAACSSKRSPIID [SERPINB5]: the protein stability index is, setting by setting: under setting [1], 3.02 ± 0.2; under setting [2], 3.12 ± 0.38. Take KEEDHYQRARKEREKEDYLHLKRQ [RHOBTB2]: the protein stability index turned out to be 4.85 ± 0.15 under setting [1] and 5.01 ± 0.19 under setting [2].

KEKLQKCLEPLEQKLQEITRCKSS [TRIM39] displayed a protein stability index under setting [1] of 4.38 ± 0.22 and a protein stability index under setting [2] of 4.44 ± 0.4.

The sequence KEKSSTVPIPTVNQYLYFLFAPTL [SOAT1] came in with a protein stability index under setting [1] of 2.57 ± 1 and a protein stability index under setting [2] of 2.17 ± 0.51. The matching figures for KGDVEEVQGPGVVGEFPIISPGRV [FBXO3]: 4.81 ± 0.27 and 4.8 ± 0.2. The matching figures for KGLEDTKSPQFNRYFYLLENIAWV [PDS5B]: 2.44 ± 0.89 and 2.31 ± 0.37.

With KGLKKVVHETPAASKTVFFFFSSP [BTBD1], the protein stability index is, setting by setting: under setting [1], 2.29 ± 0.54; under setting [2], 2.29 ± 0.26.

Regarding KGMVLDENYNNLANAVISVSGINH [CPN1], the protein stability index worked out at 3.06 ± 0.086 under setting [1] and 3.02 ± 0.29 under setting [2]. The matching figures for KGYTPLHAAASNGQINVVKHLLNL [ANKRD44]: 2.67 ± 0.21 and 2.69 ± 0.25. For the sequence KHERTHEIIPINVNNNYEHRHTSH [SPRY1], the protein stability index under setting [1] worked out at 3.68 ± 0.37 and the protein stability index under setting [2] was 3.91 ± 0.34. Take KHMFERSFTQGEGARPLSTRVPRA [MATN2]: the protein stability index under setting [1] stood at 4.07 ± 0.18 and the protein stability index under setting [2] was found to be 3.85 ± 0.35. Taken in the same sequence, the figures for KIFNDFKDRMKSDHKRETERVVRE [ZMYND11] were 4.12 ± 0.35 and 4.13 ± 0.081. The matching figures for KIINTKKLSARDHQKLEREARICR [CAMK2B]: 3.45 ± 0.29 and 3.88 ± 0.24. With KILLDAQHESGQSSSRGSSHCDSP [BNIP3L], the protein stability index reads like this: under setting [1], 4.91 ± 0.18; under setting [2], 4.83 ± 0.1. KKEDCLKLLLFLSTELQASQILQN [FAM98B] gave a protein stability index under setting [1] of 3.41 ± 1.1.

With KKQQELTAAVLGLICEGLYPASIV [ZBED1], the protein stability index runs as follows: under setting [1], 2.97 ± 0.63; under setting [2], 3.02 ± 0.58. Taken in the same sequence, the figures for KLEPMETERSPGPRLQELLGPSPQ [ZNF263] were 4.43 ± 0.14 and 4.52 ± 0.17. The matching figures for KLFESVECYDPRTQQWTAICPLKE [GAN]: 2.5 ± 0.38 and 2.82 ± 0.13. The matching figures for KLGNLMSLDISGHMILENCSISKM [ZER1]: 2.1 ± 0.24 and 2.24 ± 0.24. With KLLDHDNVKYLKKILDELEKVLDQ [GDAP1], the protein stability index was 2.42 ± 0.56 under setting [1] and 2.32 ± 0.47 under setting [2]. Taken in the same sequence, the figures for KLLVVDRTRRLGNMKNGANDVKHH [PRKX] were 3.23 ± 0.46 and 3.48 ± 0.15.

KLRHDLKKTSITQQPSKHRTDEEL [PLK2]: the protein stability index under setting [1] was 4.915 ± 0.039 and the protein stability index under setting [2] is 5.1 ± 0.15. The matching figures for KLSGFMSKLVPAIQNAHKNSTGSG [TPRG1]: 2.72 ± 0.2 and 3.03 ± 0.23. The matching figures for KMPVYSGSRPACQLQVPTLRQQCA [ELOA2]: 3.23 ± 0.32 and 3.14 ± 0.15. As for KNLKIWNVHTGEFRNCGACVTLMQ [WDR88], the protein stability index came to 2.42 ± 0.86 under setting [1] and 2.35 ± 0.54 under setting [2]. In turn, KQAKVVARRESGGRPIKPPKKDLE [BRD3] had a protein stability index under setting [1] of 5.08 ± 0.27 and a protein stability index under setting [2] of 5.05 ± 0.24. Turning to KQKVMTHVSNGCQLLLGVKGHAF [JUNB], the protein stability index by setting is: (treatment: DMSO, c terminus: native) 2.16 ± 0.21; (treatment: MLN4924 1 uM, 8 h, c terminus: native) 2.23 ± 0.21.

For KRESPGVGGGSGDEASAATPPSSR [ZBTB22], the protein stability index by setting is: under setting [1], 5.53 ± 0.23; under setting [2], 5.451 ± 0.044. Taken in the same sequence, the figures for KRKEEEALKDSLRPKLSEEQQRII [VDR] were 5.09 ± 0.26 and 5.06 ± 0.23. Turning to KRKLDTILNLERDVEDLQRDKARL [NFE2L1], the protein stability index is, setting by setting: under setting [1], 4.36 ± 0.25; under setting [2], 4.46 ± 0.17. With KSCQACRLRKCYEVGMVKCGSRRE [ESR2], the protein stability index came out at 2.35 ± 0.43 under setting [1] and 3.1 ± 0.33 under setting [2]. As for KSDKALMMLFNDGTFQVNFYHDHT [PLK2], the protein stability index by setting is: under setting [1], 1.86 ± 0.32; under setting [2], 2.25 ± 0.14. Taken in the same sequence, the figures for KSEGQKIPKVELQISIYGVKILEP [GULP1] were 2.84 ± 1 and 2.3 ± 1.1. Taken in the same sequence, the figures for KSNSYPHQLYTSSSHHSHSYIGLP [KMT2E] were 3.03 ± 0.17 and 3.24 ± 0.26. The matching figures for KSWHDMQTTTAYKKTHETLSHAGQ [TPD52L1]: 4.01 ± 0.15 and 3.96 ± 0.18. As to KSWLNGFRPKDQTSVGMSFVAGGI [SLC25A39], the protein stability index by setting is: under setting [1], 2.2 ± 0.18; under setting [2], 2.43 ± 0.24. The matching figures for KTEAEIAHIALETLEGHQRAIMAH [FLOT1]: 4.1 ± 0.12 and 4.06 ± 0.3. Taken in the same sequence, the figures for KTLALARTMDIPRSVQNFRFFASS [ALDH8A1] were 2.58 ± 0.26 and 2.6 ± 0.3.

For KTQICHTLAVTCQLPIDRGGGEGK [RAD51], the protein stability index runs as follows: under setting [1], 3.81 ± 0.17; under setting [2], 3.95 ± 0.42.

KVLEEGGFFEEKGAIFCPPCYDVR [PDLIM7] gave a protein stability index under setting [1] of 2.96 ± 0.29 and a protein stability index under setting [2] of 2.92 ± 0.36. The matching figures for KYAVPALEAHCVEFLTKHLRADNA [BTBD1]: 2.54 ± 0.25 and 2.74 ± 0.17. Taken in the same sequence, the figures for KYDVKKVEEVVYDLSIRGFNKETA [TSN] were 3.57 ± 0.31 and 3.64 ± 0.23. The matching figures for KYELMRPSNKAPLLVLCEDHRGRM [EHMT1]: 2.57 ± 0.28 and 2.78 ± 0.26. For the sequence KYPGPQAEGDSEGLSQGLVDREKG [CHGA], the protein stability index runs as follows: under setting [1], 5.32 ± 0.3; under setting [2], 5.36 ± 0.12. Taken in the same sequence, the figures for LAAGSAVFDAMFNGGMATTSAEIE [BTBD1] were 3.72 ± 0.35 and 3.75 ± 0.29. The matching figures for LAAKALLDQKKQDPRVQDFLQRCL [NET1]: 2.28 ± 0.31 and 2.42 ± 0.25.

With LAFLDKIKSVKESLQESVEDSLAT [IQUB], the protein stability index by setting is: under setting [1], 4.03 ± 0.45; under setting [2], 3.77 ± 0.69.

For LALGPILRLYKHNSQALLLHSSIL [MFSD9], the protein stability index under setting [1] turned out to be 3.12 ± 0.78 and the protein stability index under setting [2] stood at 2.59 ± 0.37. Taken in the same sequence, the figures for LALLPAAWEDSHGSQDGHFVLSCS [SCNN1D] were 2.92 ± 0.083 and 2.9 ± 0.34. The matching figures for LAPPPLPLPAAAVVHVSFPEVTSA [ZBTB22]: 3.3 ± 0.3 and 3.73 ± 0.55.

With LAVAGGPRKTAAPVNALVSHLLVV [ESRRA], the protein stability index by setting is: under setting [1], 2.92 ± 0.61; under setting [2], 2.85 ± 0.55.

LCSPGHERRGTPADTEEPTKDPDV [PSD2]: the protein stability index was 5.66 ± 0.19 under setting [1] and 5.43 ± 0.26 under setting [2]. Consider LDADAAQRVVYLEGCGPPLRRWLR [TSPAN10], for which the protein stability index amounted to 2.69 ± 0.2 under setting [1] and 2.99 ± 0.14 under setting [2]. Taken in the same sequence, the figures for LDASGEKMNGSHRDQGSSALSGVG [IKZF1] were 4.97 ± 0.51 and 5.05 ± 0.3. Sequence LDFLHSANFSLGSINQRLNKRERS [RNF180] displayed a protein stability index under setting [1] of 3.69 ± 0.24 and a protein stability index under setting [2] of 3.86 ± 0.4. Taken in the same sequence, the figures for LDLSKPNDLWPTMENLLQATKSHV [DYNC2LI1] were 3.06 ± 0.28 and 3 ± 0.19. With LDYYKTGIIRCPDGISIPELREAC [BTBD10], the protein stability index turned out to be 2.42 ± 0.34 under setting [1] and 2.5 ± 0.38 under setting [2]. For LEDGFYLTAFICFLVFILNAGLVW [MFSD9], the protein stability index reads like this: under setting [1], 3.23 ± 0.84; under setting [2], 2.73 ± 0.95.

For the sequence LEEDLKEVLRSEAGIELIIEDDIR [MYBL2], the protein stability index under setting [1] was found to be 4.66 ± 0.35 and the protein stability index under setting [2] was 4.68 ± 0.39.

With LEFAYYFRPGHLLANACLPVRTTN [ZSWIM9], the protein stability index runs as follows: under setting [1], 2.47 ± 0.67; under setting [2], 2.25 ± 0.28. For LEGWRPDQLYRRKKDNHALVRETD [ELOA2], the protein stability index reads like this: under setting [1], 4.45 ± 0.16; under setting [2], 4.57 ± 0.12. The matching figures for LEIPVETITSEVIEKCTTPLSDDH [CRY1]: 4.8 ± 0.23 and 5.02 ± 0.3. The matching figures for LELAQFHNAHQLAAWCLHHICTNY [RHOBTB1]: 2.7 ± 0.48 and 2.59 ± 0.43.

LEQMGALAVRGSRRERELERRELA [ZBED3]: the protein stability index runs as follows: under setting [1], 5 ± 0.37; under setting [2], 4.76 ± 0.34. Taken in the same sequence, the figures for LESLPTDPLLLILSFLDYRDLINC [FBXO3] were 2.84 ± 0.61 and 2.85 ± 0.64.

LETLPEFRDEKDYPASTSQDSFEA [KCNA3]: the protein stability index under setting [1] came out at 5.38 ± 0.37 and the protein stability index under setting [2] came out at 5.41 ± 0.2.

For the sequence LEVINLLRKHRELCDVVLVVGAKK [KLHL20], the protein stability index was 2.37 ± 0.48 under setting [1] and 2.41 ± 0.34 under setting [2].

LEYLYTDSCCPAGIFQAMCLLICA [RHOBTB3]: the protein stability index came out at 3.08 ± 0.45 under setting [1] and 3.19 ± 0.55 under setting [2]. Taken in the same sequence, the figures for LFEEPEDPSNRSFFSEIISSVSDV [PPP2R2C] were 4.24 ± 0.057 and 4.19 ± 0.19.
